Experimental findings from the RNAGym collection of RNA variant scans (doi:10.7554/elife.80360) are described below.

First the molecules themselves.
B1: Twister Ribozyme (parent)
chain: AACACUGCCAAUGCCGGUCCCAAGCCCGGAUAAAAGUGGAGGGGGCGG

This data set covers variants of B1. The experiment in a line: self-cleavage, relative activity (ratio to wild type); higher = more cleavage; co-transcriptional.
For C21U A40C, the self-cleavage was found to be 0.109.
As to C21U A40G, the self-cleavage was determined as 0.0774.
Turning to C21U A40U, the self-cleavage is 0.0831.
On to A22G A34G, for which the self-cleavage is 0.0987.
Regarding A22G A34U, the self-cleavage was 0.096.
A23C G43A: the self-cleavage is 0.117.
Regarding A23C G36A, the self-cleavage came out at 0.09.
As for A23C G36U, the self-cleavage amounted to 0.0946.
To A22C G36U belongs 0.204; to C21A G36A, 0.0703.
Then C21U A30G, with 0.097; and C21G G42C, with 0.13; and C21G G42A, with 0.0891.
As for C21G A33U, the self-cleavage was found to be 0.0662.
In the case of C20U C46U, the self-cleavage was 0.969.
Turning to C20U C46A, the self-cleavage came to 0.784.
Turning to C20U C46G, the self-cleavage stood at 0.815.
To A23G C26U belongs 0.101.
To A23G C26G belongs 0.107.
C21U G44U: the self-cleavage was 0.0882.
C20U G47A: the self-cleavage was found to be 0.859.
Consider A22G G43A, for which the self-cleavage was determined as 0.0968.
For A22C C27U, the self-cleavage was determined as 0.901.
In the case of A22G A33U, the self-cleavage amounted to 0.237.
Then A22G A33G, with 0.255; and A22G G38C, with 0.0945; and A22C A23C, with 0.148.
Then A22C A23G, with 0.341.
Turning to C21U G43U, the self-cleavage is 0.106.
As to A22U G41A, the self-cleavage came out at 0.102.
As to A22U G41C, the self-cleavage worked out at 0.142.
To A22U G48U belongs 0.911; to A22U G48A, 0.666; to A22U G48C, 0.954.
Turning to A23G C46G, the self-cleavage amounted to 0.405.
As to A23G C46U, the self-cleavage came out at 0.579.
Take A22U: the self-cleavage was determined as 0.879.
On to A22C, for which the self-cleavage was 1.02.
In the case of A22G, the self-cleavage was 0.368.
For the variant C20U G28U, the self-cleavage came out at 0.906.
A23C U37G: the self-cleavage is 0.0666.
On to A23C U37A, for which the self-cleavage was determined as 0.088.
As to C21A G44U, the self-cleavage stood at 0.108.
Then C21A G44A, with 0.113; and C21A A22C, with 0.101; and C21A A22G, with 0.101.
Then C20U A35G, with 0.664; and C21G C27G, with 0.138.
To C21G C27U belongs 0.0651.
With A22U U31C, the self-cleavage stood at 0.935.
As to C21U G45U, the self-cleavage came to 0.118.
Turning to C21U G29U, the self-cleavage was determined as 0.0831.
Regarding A22G G41A, the self-cleavage was determined as 0.0888.
As to A22G G41U, the self-cleavage stood at 0.119.
Turning to C20U G43C, the self-cleavage came to 0.125.
A22G C26G: the self-cleavage amounted to 0.0488.
In the case of A22G C26A, the self-cleavage was 0.0908.
As for A22C A30U, the self-cleavage is 1.
With A22U C27G, the self-cleavage was found to be 0.0668.
As for A22U C27U, the self-cleavage stood at 0.692.
In the case of A23C G44C, the self-cleavage was determined as 0.212.
With A23C G44A, the self-cleavage was determined as 0.478.
Regarding A23C G44U, the self-cleavage was 0.195.
Consider A23G C25G, for which the self-cleavage came to 0.0343.
To C20U G36U belongs 0.0929; to C20U G36C, 0.135.
Then A22U A35G, with 0.583; and A22G G29U, with 0.183; and A23C G47A, with 0.127.
For the variant A23C G47U, the self-cleavage worked out at 0.145.
Then C21G A35U, with 0.0529; and C21G A35G, with 0.0519; and C21G A35C, with 0.0454.
For C21A A35U, the self-cleavage was 0.104.
Then A22G G24C, with 0.0998; and A22C G43U, with 0.273.
To C20U U37G belongs 0.702.
For the variant C21U G41U, the self-cleavage stood at 0.136.
To C21U G41C belongs 0.434; to C21U G41A, 0.641.
In the case of C21G G29A, the self-cleavage turned out to be 0.0338.
For C20U G38U, the self-cleavage was found to be 0.742.
Turning to A22U G42A, the self-cleavage came out at 0.126.
In the case of C21G C26A, the self-cleavage was 0.0789.
Regarding C21G C26U, the self-cleavage is 0.0515.
In the case of A23C C25U, the self-cleavage was 0.116.
As to C21G G48A, the self-cleavage was determined as 0.146.
A22C G41A: the self-cleavage is 0.326.
As for A22C G41U, the self-cleavage came to 0.366.
For A23G A30G, the self-cleavage stood at 0.647.
To A23G A30U belongs 0.587.
As for A23C G48C, the self-cleavage was 0.211.
Turning to C21G G41A, the self-cleavage was found to be 0.159.
As to A22C G29C, the self-cleavage is 0.929.
Regarding C20U A33U, the self-cleavage worked out at 0.778.
To A23C A35G belongs 0.0714; to A23C A35C, 0.227.
As for C21G G47C, the self-cleavage came to 0.0639.
Turning to A23C C26U, the self-cleavage amounted to 0.0813.
Then A23C G39U, with 0.0921; and C20G G43C, with 0.101.
With C20G G43U, the self-cleavage worked out at 0.0978.
A23C G45C: the self-cleavage worked out at 0.125.
Turning to C21A A23G, the self-cleavage stood at 0.0801.
For C21A A23C, the self-cleavage was found to be 0.109.
Take A22G G36A: the self-cleavage worked out at 0.0781.
Regarding A22G G36U, the self-cleavage amounted to 0.105.
Then C21U C27G, with 0.0722; and A23C A33G, with 0.0917; and A23C A33U, with 0.13.
As to A23C A33C, the self-cleavage turned out to be 0.0964.
To A22U G47C belongs 0.216; to A22U G47A, 0.582; to A22U G39U, 0.0706.
Turning to A22U G39C, the self-cleavage worked out at 0.115.
For the variant A22U G38C, the self-cleavage came to 0.779.
With C20U A23G, the self-cleavage was determined as 0.121.
As to C20U A23C, the self-cleavage was determined as 0.0767.
Regarding C21G A34C, the self-cleavage worked out at 0.0532.
With C21U U31G, the self-cleavage is 0.115.
As for A22G G39C, the self-cleavage amounted to 0.0779.
Consider C21U C25G, for which the self-cleavage amounted to 0.0992.
Take C21U C25A: the self-cleavage came to 0.061.
To C21A G47A belongs 0.135.
Consider C20U C21A, for which the self-cleavage came to 0.115.
Take C20U C21G: the self-cleavage is 0.0649.
For the variant C20U C21U, the self-cleavage is 0.119.
Turning to A22U U37A, the self-cleavage amounted to 0.256.
Take A22G A30C: the self-cleavage stood at 0.111.
For A22U G24A, the self-cleavage came out at 0.0776.
Turning to A22G U37A, the self-cleavage worked out at 0.152.
With A22G U37G, the self-cleavage is 0.0844.
Turning to C21A A33G, the self-cleavage was 0.0711.
To C21A A33C belongs 0.112; to C21A A33U, 0.102; to C21U C26A, 0.0796.
Take C21A G43U: the self-cleavage worked out at 0.0849.
For C21A G43A, the self-cleavage was 0.0637.
As for C21A G43C, the self-cleavage amounted to 0.0785.
C21A A40G: the self-cleavage amounted to 0.0639.
Regarding C21A A34U, the self-cleavage turned out to be 0.102.
Turning to A22C A40G, the self-cleavage was found to be 0.128.
For C21U G47U, the self-cleavage was determined as 0.109.
As to A23C G24C, the self-cleavage was 0.124.
Regarding A22G C46U, the self-cleavage is 0.286.
Regarding A23C G41C, the self-cleavage was 0.112.
Regarding C20G G47A, the self-cleavage is 0.111.
As for C20G G47C, the self-cleavage worked out at 0.133.
As to C20G G47U, the self-cleavage worked out at 0.131.
A23G A34U: the self-cleavage amounted to 0.15.
Consider C20U A22C, for which the self-cleavage stood at 1.01.
For A22U A23G, the self-cleavage was 0.0873.
For C20U C26U, the self-cleavage was 0.128.
C20U C26A: the self-cleavage is 0.138.
Consider A22G A32C, for which the self-cleavage was determined as 0.35.
For the variant A22G A32U, the self-cleavage came to 0.278.
With A22U C25U, the self-cleavage turned out to be 0.513.
Consider C21A C26G, for which the self-cleavage is 0.0786.
For the variant A22U A40U, the self-cleavage amounted to 0.128.
Regarding C21U U37A, the self-cleavage came to 0.0811.
Then A22G C25U, with 0.131; and C21U G38C, with 0.0755.
Take C21U G38A: the self-cleavage was determined as 0.0657.
As to C20U G41C, the self-cleavage came out at 0.133.
On to C20U C25A, for which the self-cleavage is 0.078.
In the case of C21A G24U, the self-cleavage amounted to 0.0879.
In the case of C21U A34C, the self-cleavage came to 0.0844.
